Results from patent US5985836A, “Alpha-1 proteinase inhibitor binding peptides” (Bayer Corporation, priority 1998, dated 1999).
Blank lines part the entries; values can stand above or below the substance they belong to. Ends that are not written are not given here.

Assays:
[1] = target: T1, A1PI (Homo sapiens, UniProt P01009); assay: A1PI binding on peptide-resin column, injection of 1 mg A1PI in equilibration buffer; conditions: 1 mg A1PI in equilibration buffer; for Percent A1PI Eluted by Fraction Based on Absorbance at 280 nm, 1M NaCl / Percent A1PI Eluted by Fraction Based on Absorbance at 280 nm, 2% Acetic Acid / Percent A1PI Eluted by Fraction Based on Absorbance at 280 nm, Flowthrough: 4° C.; for Percent A1PI Eluted by Fraction, 1M NaCl / Percent A1PI Eluted by Fraction, 2% Acetic Acid / Percent A1PI Eluted by Fraction, Flowthrough: 20° C.
T1 construct: Human plasma is currently the only approved source of therapeutic AlPI
How it was run: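 Peptides synthesized on A-Totda-Toyopearl chelate resin (0.1 mmole/g) packed in 0.4×5 cm columns; 1 mg A1PI injected in equilibration buffer at 4 °C or 20 °C, 865 or 523 μl/min. Flowthrough, 1M/3M NaCl washes and 2% acetic acid eluate quantified by A280 or immunonephelometry as percent of total eluted.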

[2] = target: T1, A1PI; assay: A1PI purification from 5 mg hSA + 1 mg A1PI on peptide column, A1PI mass balance; type: binding; conditions: A1PI, 5 mg hSA + 1 mg A1PI; for Mass Protein per Eluate Fraction, 1M NaCl / Mass Protein per Eluate Fraction, 2% Ac. Acid / Mass Protein per Eluate Fraction, 3M NaCl / Mass Protein per Eluate Fraction, Flow: * Below detection limit; for Percent Eluted by Fraction, 1M NaCl / Percent Eluted by Fraction, 2% Ac. Acid / Percent Eluted by Fraction, 3M NaCl / Percent Eluted by Fraction, Flow: relative to total eluted
How it was run: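 Peptides on A-Totda-Toyopearl resin (0.1 mmole/g) in 0.4×5 cm columns; 5 mg hSA + 1 mg A1PI loaded at 4 °C or 20 °C with 10 min residence (17 μl/min). Steps of 1M and 3M NaCl, then 2% acetic acid; fractions quantified by immunonephelometry for mass balance.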

[3] = test system: Immunoglobulin G (IgG); assay: Purification from Effluent II+III, IgG mass balance; type: binding, human; conditions: 1 ml Eff. II+III, 4° C.
Protocol: (§1) Sequences 1-11 and 15 were assayed with Effluent II+III (Eff. II+III). Eff. II+III is a process intermediate in the Cohn plasma fractionation process. The feed stream contains 20% (by volume) ethanol, 20-25 mg/ml hSA and approximately 1 mg/ml AlPI. The stream also contains other proteins including anti-thrombin III (AT3), immunoglobin G (IgG), immunoglobin A (IgA), apolipoprotein alpha-1 (Apo A-1), transferrin (Trf), haptoglobin (Hpt), and alpha-1 acid glycoprotein (AAG) at concentrations ranging from 0.1-1 mg/ml.
(§2) The columns were assayed using the same technique as the hSA+AlPI experiments, allowing for a 10 minute residence time followed by a constant flow rate of 865 μl/min with step elutions of 1M NaCl, 3M NaCl, and 2% acetic acid. All experiments were conducted at 4° C. The mass balances for the injection of 1 ml Eff. […] The AlPI was enriched from 3% of the total protein in the feed to upwards of 50% in the acid eluate.

[4] = target: T1, A1PI; assay: A1PI yield from dialyzed (aqueous) Effluent II+III; type: binding; conditions: 4° C.
Protocol: Effluent II+III was dialyzed against equilibration buffer at 4° C. to remove the ethanol using a 15,000 molecular weight cut-off membrane. Nephelometry of the Eff. […] A portion of the identified sequences were assayed under the same conditions applied for neat Eff. II+III at 4° C. […] II+III compared to the neat, ethanol-containing feed. The binding strength differed for the aqueous feed as more AlPI eluted in 1M NaCl for the aqueous feed. The AlPI eluted in the 1M NaCl fractions was not as enriched as that eluted in the acid eluates.

[5] = target: T2, apolipoprotein alpha-1 (Apo A-1) (Homo sapiens, UniProt P02647); assay: Purification from Effluent II+III, Apo A-1 mass balance; type: binding; conditions: 1 ml Eff. II+III, 4° C.; for Mass Protein per Eluate Fraction, 2% Acetic Acid: * as in Tables 4, 5 (below detection limit)
T2 construct: Eff; II+III is a process intermediate in the Cohn plasma fractionation process; tissue Bayer Corporation (Clayton, N.C.); host or cells: plasma fraction: Cohn Effluent II+III
Protocol: as §1, §2

[6] = target: T1, A1PI; assay: Purification of A1PI from Effluent II+III on peptide column, A1PI mass balance; type: binding; conditions: A1PI, 1 ml Eff. II+III, 4° C.; for Mass Protein per Eluate Fraction, 1M NaCl / Mass Protein per Eluate Fraction, 2% Acetic Acid / Mass Protein per Eluate Fraction, Flow: * as in Tables 4, 5 (below detection limit)
How it was run: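 First, 1 ml of the ethanolic Cohn intermediate (20% ethanol, ~1 mg/ml A1PI) is injected and held for a 10 min residence time. Columns are then eluted stepwise at a constant 865 μl/min with 1M NaCl, 3M NaCl and finally 2% acetic acid, all at 4° C.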

[7] = test system: Immunoglobulin A (IgA); assay: Purification from Effluent II+III, IgA mass balance; type: binding, human; conditions: 1 ml Eff. II+III, 4° C.; for Mass Protein per Eluate Fraction, 1M NaCl / Mass Protein per Eluate Fraction, 2% Acetic Acid / Mass Protein per Eluate Fraction, Flow: * as in Tables 4, 5 (below detection limit)
Protocol: as §1, §2

[8] = target: T1, A1PI; assay: Capture and elution of active A1PI with 2M urea buffer (elastase inhibition activity assay and immunonephelometry); type: binding; conditions: 4° C.
[9] = * as in Tables 4, 5 (below detection limit)
[10] = 1 ml dialyzed Eff. II+III (ethanol removed)
[11] = A1PI, 1 ml dialyzed Eff. II+III

T2 sequence (P02647 19-267): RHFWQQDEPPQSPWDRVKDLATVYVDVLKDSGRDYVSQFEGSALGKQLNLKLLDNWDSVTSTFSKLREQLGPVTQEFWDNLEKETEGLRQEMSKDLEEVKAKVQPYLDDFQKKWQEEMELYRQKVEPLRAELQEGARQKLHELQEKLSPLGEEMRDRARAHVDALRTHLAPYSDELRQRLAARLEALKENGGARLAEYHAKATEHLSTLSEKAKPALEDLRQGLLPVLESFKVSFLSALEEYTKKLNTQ
T1 sequence (P01009 25-418): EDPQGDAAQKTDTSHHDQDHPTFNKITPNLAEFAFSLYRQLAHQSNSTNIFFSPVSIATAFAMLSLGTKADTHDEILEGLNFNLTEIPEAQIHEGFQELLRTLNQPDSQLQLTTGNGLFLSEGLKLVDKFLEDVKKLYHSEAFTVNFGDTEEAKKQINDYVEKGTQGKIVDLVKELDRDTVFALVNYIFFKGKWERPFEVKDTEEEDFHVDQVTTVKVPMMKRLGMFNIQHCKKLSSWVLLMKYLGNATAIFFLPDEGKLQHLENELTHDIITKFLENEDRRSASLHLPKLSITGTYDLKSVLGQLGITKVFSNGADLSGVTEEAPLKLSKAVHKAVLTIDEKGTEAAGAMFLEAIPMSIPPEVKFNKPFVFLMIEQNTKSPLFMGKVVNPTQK

- Percent A1PI Eluted by Fraction Based on Absorbance at 280 nm, 1M NaCl [1]: 55%
- Percent A1PI Eluted by Fraction Based on Absorbance at 280 nm, 2% Acetic Acid [1]: 45%
- Percent A1PI Eluted by Fraction Based on Absorbance at 280 nm, Flowthrough [1]: 0%
- Percent A1PI Eluted by Fraction, 1M NaCl [1]: 84%
- Percent A1PI Eluted by Fraction, 2% Acetic Acid [1]: 16%
- Percent A1PI Eluted by Fraction, Flowthrough [1]: 0%
- Mass Protein per Eluate Fraction, 1M NaCl ([2]; 4° C.): 0.33 mg
- Mass Protein per Eluate Fraction, 2% Ac. Acid ([2]; 4° C.): 0.41 mg
- Mass Protein per Eluate Fraction, 3M NaCl ([2]; 4° C.): 0.04 mg
- Percent Eluted by Fraction, 1M NaCl ([2]; 4° C.): 43%
- Percent Eluted by Fraction, 2% Ac. Acid ([2]; 4° C.): 53%
- Percent Eluted by Fraction, 3M NaCl ([2]; 4° C.): 5%
- Percent Eluted by Fraction, Flow ([2]; 4° C.): 0%
- Mass Protein per Eluate Fraction, 1M NaCl ([2]; 20° C.): 0.16 mg
- Mass Protein per Eluate Fraction, 2% Ac. Acid ([2]; 20° C.): 0.15 mg
- Mass Protein per Eluate Fraction, Flow ([2]; 20° C.): 0.67 mg
- Percent Eluted by Fraction, 1M NaCl ([2]; 20° C.): 16%
- Percent Eluted by Fraction, 2% Ac. Acid ([2]; 20° C.): 15%
- Percent Eluted by Fraction, 3M NaCl ([2]; 20° C.): 0%
- Percent Eluted by Fraction, Flow ([2]; 20° C.): 69%
- Mass A1PI per Eluate Fraction, 1M NaCl [4, 10]: 0.18 mg
- Mass A1PI per Eluate Fraction, 2% Acetic Acid [4, 10]: 0.20 mg
- Mass A1PI per Eluate Fraction, Flowthrough [4, 10]: 0.24 mg
- Percent Eluted by Fraction, 1M NaCl [4, 11]: 30%
- Percent Eluted by Fraction, 2% Acetic Acid [4, 11]: 32%
- Percent Eluted by Fraction, Flowthrough [4, 11]: 39%
- Percent Eluted by Fraction, 1M NaCl [5]: 0%
- Percent Eluted by Fraction, 2% Acetic Acid [5]: 100%
- Percent Eluted by Fraction, 3M NaCl [5]: 0%
- Percent Eluted by Fraction, Flow [5]: 0%
- Mass Protein per Eluate Fraction, 2% Acetic Acid [5]: 0.29 mg
- Percent Eluted by Fraction, 1M NaCl [6]: 7%
- Percent Eluted by Fraction, 2% Acetic Acid [6]: 75%
- Percent Eluted by Fraction, 3M NaCl [6]: 0%
- Percent Eluted by Fraction, Flow [6]: 18%
- Mass Protein per Eluate Fraction, 1M NaCl [6]: 0.08 mg
- Mass Protein per Eluate Fraction, 2% Acetic Acid [6]: 0.81 mg
- Mass Protein per Eluate Fraction, Flow [6]: 0.20 mg
Substance: ARWYIH
- Percent Eluted by Fraction, 1M NaCl [3]: 0%
- Percent Eluted by Fraction, 2% Acetic Acid [3]: 7%
- Percent Eluted by Fraction, 3M NaCl [3]: 0%
- Percent Eluted by Fraction, Flow [3]: 93%
- Mass Protein per Eluate Fraction, 2% Acetic Acid [3, 9]: 0.02 mg
- Mass Protein per Eluate Fraction, Flow [3, 9]: 0.23 mg
- Percent Eluted by Fraction, 1M NaCl [7]: 18%
- Percent Eluted by Fraction, 2% Acetic Acid [7]: 56%
- Percent Eluted by Fraction, 3M NaCl [7]: 0%
- Percent Eluted by Fraction, Flow [7]: 25%
- Mass Protein per Eluate Fraction, 1M NaCl [7]: 0.07 mg
- Mass Protein per Eluate Fraction, 2% Acetic Acid [7]: 0.21 mg
- Mass Protein per Eluate Fraction, Flow [7]: 0.09 mg

- Percent A1PI Eluted by Fraction Based on Absorbance at 280 nm, 1M NaCl [1]: 57%
- Percent A1PI Eluted by Fraction Based on Absorbance at 280 nm, 2% Acetic Acid [1]: 43%
- Percent A1PI Eluted by Fraction Based on Absorbance at 280 nm, Flowthrough [1]: 0%
- Percent A1PI Eluted by Fraction, 1M NaCl [1]: 64%
- Percent A1PI Eluted by Fraction, 2% Acetic Acid [1]: 36%
- Percent A1PI Eluted by Fraction, Flowthrough [1]: 0%
- Mass Protein per Eluate Fraction, 1M NaCl ([2]; 4° C.): 0.27 mg
- Mass Protein per Eluate Fraction, 2% Ac. Acid ([2]; 4° C.): 0.64 mg
- Mass Protein per Eluate Fraction, 3M NaCl ([2]; 4° C.): 0.04 mg
- Mass Protein per Eluate Fraction, Flow ([2]; 4° C.): 0.03 mg
- Percent Eluted by Fraction, 1M NaCl ([2]; 4° C.): 27%
- Percent Eluted by Fraction, 2% Ac. Acid ([2]; 4° C.): 66%
- Percent Eluted by Fraction, 3M NaCl ([2]; 4° C.): 4%
- Percent Eluted by Fraction, Flow ([2]; 4° C.): 3%
- Mass Protein per Eluate Fraction, 1M NaCl ([2]; 20° C.): 0.11 mg
- Mass Protein per Eluate Fraction, 2% Ac. Acid ([2]; 20° C.): 0.44 mg
- Mass Protein per Eluate Fraction, Flow ([2]; 20° C.): 0.29 mg
- Percent Eluted by Fraction, 1M NaCl ([2]; 20° C.): 12%
- Percent Eluted by Fraction, 2% Ac. Acid ([2]; 20° C.): 53%
- Percent Eluted by Fraction, 3M NaCl ([2]; 20° C.): 0%
- Percent Eluted by Fraction, Flow ([2]; 20° C.): 35%
- Percent Eluted by Fraction, 1M NaCl [5]: 0%
- Percent Eluted by Fraction, 2% Acetic Acid [5]: 100%
- Percent Eluted by Fraction, 3M NaCl [5]: 0%
- Percent Eluted by Fraction, Flow [5]: 0%
- Mass Protein per Eluate Fraction, 2% Acetic Acid [5]: 0.37 mg
- Percent Eluted by Fraction, 1M NaCl [6]: 5%
- Percent Eluted by Fraction, 2% Acetic Acid [6]: 80%
- Percent Eluted by Fraction, 3M NaCl [6]: 0%
- Percent Eluted by Fraction, Flow [6]: 15%
- Mass Protein per Eluate Fraction, 1M NaCl [6]: 0.05 mg
- Mass Protein per Eluate Fraction, 2% Acetic Acid [6]: 0.81 mg
- Mass Protein per Eluate Fraction, Flow [6]: 0.15 mg
- Mass A1PI in Urea Eluate (mg), Activity ([8]; 1 mg A1PI, eluted with 2M urea, pH 6, elastase inhibition activity assay): 0.67 mg
- Mass A1PI in Urea Eluate (mg), Nephelometry ([8]; 1 mg A1PI, eluted with 2M urea, pH 6, immunonephelometry): 0.80 mg
- Specific Activity ([8]; mass of A1PI by activity assay relative to immunonephelometry, urea eluate): 0.84 mg/mg
Substance: RFIYYT
- Percent Eluted by Fraction, 1M NaCl [3]: 7%
- Percent Eluted by Fraction, 2% Acetic Acid [3]: 7%
- Percent Eluted by Fraction, 3M NaCl [3]: 0%
- Percent Eluted by Fraction, Flow [3]: 86%
- Mass Protein per Eluate Fraction, 1M NaCl [3, 9]: 0.02 mg
- Mass Protein per Eluate Fraction, 2% Acetic Acid [3, 9]: 0.02 mg
- Mass Protein per Eluate Fraction, Flow [3, 9]: 0.23 mg
- Percent Eluted by Fraction, 1M NaCl [7]: 31%
- Percent Eluted by Fraction, 2% Acetic Acid [7]: 38%
- Percent Eluted by Fraction, 3M NaCl [7]: 0%
- Percent Eluted by Fraction, Flow [7]: 31%
- Mass Protein per Eluate Fraction, 1M NaCl [7]: 0.10 mg
- Mass Protein per Eluate Fraction, 2% Acetic Acid [7]: 0.12 mg
- Mass Protein per Eluate Fraction, Flow [7]: 0.10 mg
